Laboratory results as given in the nanobody polyreactivity screen of Harvey et al. (2022).

Test: yeast display, Sf9 membrane polyspecificity reagent, FACS + sequencing; frameworks hold sequencing errors
In short: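 Sorting gates, low and high (top ~1%), were placed on anti-HA fluorescence to track expression and on streptavidin fluorescence to track reagent binding. A clone's polyreactivity label is taken from the gate it came out of. The reagent was 10% biotinylated, detergent-solubilized Sf9 membrane, applied for 1 hour at 4 °C to galactose-induced yeast display cells.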

For “QVQLVESGGGLVLAGGSLRLSCAASGHIFFYYTMGWYRQSPGKERELVAGITIGGSTNYADSVKGLFTISRDNAKNTVYLQMISLKPEDTAVYYCNVVKYVYIYSYWEYYYWGQGTQVTVSS”, which “polyreactivity (PSR sort gate)” value is on record?
The value was “low polyreactivity”.

Which “polyreactivity (PSR sort gate)” value does the source give for “QVQLVESGGGLVLAGGSLRLSCAASGRSSSSYAMGWYRQAPGKEREFVAAIRSSGGSTSYADSVKGRFTISRDNAKNTVYLQMNSLKPEDTAVYYCAVRKHFVVSYDYWGQGTQVTVSS” here?
Its value is “high polyreactivity”.

For “QVQLVESGGGLVLAGGSLRLSCAASGSIFSLYAMGWYRQAPGKEREVVAALSRGGSTNYADSVKGRFTISRDTAKNTVYLQMNCLKPEDTAVYYSNAGFGVRRKHITVYTWYDYWGQGTQVTVSS”, which “polyreactivity (PSR sort gate)” value is on record?
Its value is “low polyreactivity”.

With “QVQLVESGGGLVLAGGSLRLSCAASGSNFSPNAMGWYRKAPGKERELVAAITYRGANTYYADSVKGRFTISRDYAKNTVYFLMNSLKPEDTAVYFCAAEYAYHHVGFGYWGQGTQVTVSS” as the sequence, how does the “polyreactivity (PSR sort gate)” value read?
The value was “low polyreactivity”.

With “QVQLVESGGGLVLAGGSLRLSCAASGSTFGRYAMGWSRQAPGKERELVAAISRGTTTNYADSVKGRFTIARDNAKNTVYLQMNSLKPEETAVYYCAADQPSKRYYYWGQGTQVTVSS” as the sequence, how does the “polyreactivity (PSR sort gate)” value read?
The value was “low polyreactivity”.

With “QVQLVESGGGLVLAGGSLRLSCAASGSTFIWNAMGWYRQAPGKERELVAAIRRGSSTNYADSVKGRFTISRDNAKNTVYLQMNSLKPEDTAVYYCAKKQVTTDVSSETFVLEMDYWGQGTQVTVSS” as the sequence, how does the “polyreactivity (PSR sort gate)” value read?
Its value is “low polyreactivity”.

For “QVQLVESGGGLVLAGGSLRLSCPASGFTFRYYAMGWSRQAPGKDRELVAAISVSGGSTYYADSVKGRFTISRDNAKNSVYLQMNILKPEDTAVYYCNARRNVGFGYWGQGTQVTVSS”, which “polyreactivity (PSR sort gate)” value is on record?
Its value is “high polyreactivity”.

With “QVQLVESGGGLVPAGGSLRLSCAASGFIYWYAMGWYRQAPGKETELVAAITWSGGSTYADSVKGRFTISRDNAKNTVYLQMNCLKPEDSAVYYCAADKYSQWSSHTRVRYDYWGQGTQETVSS” as the sequence, how does the “polyreactivity (PSR sort gate)” value read?
Its value is “low polyreactivity”.

With “QVQLVESGGGLVPAGGSLRLSCAASGFTFEYYVIGWYRHAPGKERELVAAISSRGGSTYYADSVKGRFTISRDNAKNTVYLQMNSLKPDDTAVYYGATRDPYPRRREFEYWGQGTQVTVSS” as the sequence, how does the “polyreactivity (PSR sort gate)” value read?
The value was “low polyreactivity”.

For “QVQLVESGGGLVPAGGSLRLSCAASGFTFGVYAMGWYRQAPGKERELVAAITWSGGRTYYADSVKGRFTISRDNAKNSVYLQMNSLKPEDTAVYYCAAGFYRYNAVRYDYWGQGTQVTVSS”, which “polyreactivity (PSR sort gate)” value is on record?
The value was “high polyreactivity”.

For “QVQLVESGGGLVPAGGSLRLSCAASGFTFSYYAMGWYRQAPGKERELVAAISWSGGRTYYADSVKGRFTISRDNAKNTVYLEMNRLKPEDTAVYYCAVVYYGSIFVLEYDYWGQGTQVTVSS”, which “polyreactivity (PSR sort gate)” value is on record?
Its value is “high polyreactivity”.

Which “polyreactivity (PSR sort gate)” value does the source give for “QVQLVESGGGLVPAGGSLRLSCAASGLTFTTYAMGWYRQAPGKERELVAANSNSGATTYYADSVKGRFTISRDNAKNTVYLQMNSLKREETAVYYCAATSYTATWRYYYWGQGTQVTVSS” here?
The value was “high polyreactivity”.

Which “polyreactivity (PSR sort gate)” value does the source give for “QVQLVESGGGLVPAGGSLRLSCAASGRTLYGYAMGWYRQAPGKERELVAAISGGGSTYYADSVKGRFTISRDNAKNTVYLQMNSLKPEDTAVYYCARRANFYVRRYYWGQGSQVTVSS” here?
The value was “high polyreactivity”.

For “QVQLVESGGGLVPAGGSLRLSCAASGSTFTQNARGWYRQAPGKERELVAAISWSGARTYYADSVKGRFTISPDNANNTVYLQMNSLKPEDTAVYYCNNYARKRGTTNDYWGQGTQVTVSS”, which “polyreactivity (PSR sort gate)” value is on record?
Its value is “high polyreactivity”.

Which “polyreactivity (PSR sort gate)” value does the source give for “QVQLVESGGGLVPAGGSLRLSCASSGIIFWVNAMGWYRQAPGNERELVAAIRSDGSTKYADSVKRRFTISRDKAKNTVYVQMNSLKPVDTALYYCAKRDYSYPWFRDYYYWGQGTKVTVSS” here?
The value was “low polyreactivity”.

For “QVQLVESGGGLVPAGGSRRLSCAASGSIFTSYAMGWYRQAPGKERELVAAISSSGGSTYYADSVSGRFTISRDNAKQTVYFQMNSLKPEDTAVYYCAARYKGVYAPHYYWGQGTQVTVSS”, which “polyreactivity (PSR sort gate)” value is on record?
The value was “high polyreactivity”.

Which “polyreactivity (PSR sort gate)” value does the source give for “QVQLVESGGGLVPARGSLRLSCAASGSTFSDNAMGWYRQAPGKERELVAAINWSVGSTYYADSVKGRFTISRDNAKNTVYLQMNRRKPEDTAVYYCAGGYSLYESLVIFDYWGQGTQVTVSS” here?
Its value is “low polyreactivity”.

With “QVQLVESGGGLVQAAGSLRLSCAASGFIFQAYAMGWYRQAPGKERELVAAISSSGGSTYYADSVKGRFTISRDNAKYTVYLKRNILKPEDTAVYYCAARSRRVSLLSESYGYWGQGTQVTVSS” as the sequence, how does the “polyreactivity (PSR sort gate)” value read?
Its value is “high polyreactivity”.

With “QVQLVESGGGLVQAAGSLRLSCAASGFTLTGNAMGWYRQATGKERELVAAISRNGGSTFYADSVKGRFTISRDNAKNTVFLQMNSLKPEDTAVYYCNASRYRHSAYKYDSWGQGTQVTVSS” as the sequence, how does the “polyreactivity (PSR sort gate)” value read?
Its value is “high polyreactivity”.

Which “polyreactivity (PSR sort gate)” value does the source give for “QVQLVESGGGLVQAAGSLRLSCAASGITFRWYAMGWYRQAPGKERELVAAITYRGGSTHYEDSVKGRFTISRDNAKTSVYLQMNSLKPEDTAVYYCAVRRWPRYRWSDYWGKGTQVTVSS” here?
Its value is “low polyreactivity”.

With “QVQLVESGGGLVQAAGSLRLSCAASGNIFVRYVMGWYRQAPGKERELVAAITTSGGSTRYADSVKGRFTISRDNAKNSVYLQMNSLKPEDTAVYYCAARFRYRHLTYGYWGQGTQVTVSS” as the sequence, how does the “polyreactivity (PSR sort gate)” value read?
Its value is “high polyreactivity”.

For “QVQLVESGGGLVQAAGSLRLSCAASGRTFSGYAMGWYRQAPGKERELVAAIRWSGGSTYYADSVKGRFTISRDNAKNTVYLQMNSLKPEDTAVYYCATRDYYYRYGYWGQGTQVTVSS”, which “polyreactivity (PSR sort gate)” value is on record?
Its value is “high polyreactivity”.

Which “polyreactivity (PSR sort gate)” value does the source give for “QVQLVESGGGLVQAAGSLRLSCAASGSTFDNKVMGWYRQAPGKERELVATITWGDGSTSYADSVKGRFTISRDIAKNTVYLELNSRKREDTAVYFCAAGEYYHRIFLWYVYWGQGTKVTVSS” here?
Its value is “low polyreactivity”.

With “QVQLVESGGGLVQAAGSLRLSCAASGYTLAGNAMGWYRQSPGIERELVAAIDWNGGSTTYADSVKGRFTISRDNAKNTVYLQMNSLKPEDSAVYYCNVDLGVNGDYWGQGWQVTVSS” as the sequence, how does the “polyreactivity (PSR sort gate)” value read?
Its value is “low polyreactivity”.

For “QVQLVESGGGLVQAAGSLRLSCATSGFTFVSNAMGRYRQPHGKQRELVAAITKRRSGSTYYADSVKGRFTISRDNAKNTVYLQMNSLKPEDTAVYYCDRVPDTDGEYWGQGTQVTVSS”, which “polyreactivity (PSR sort gate)” value is on record?
Its value is “high polyreactivity”.

Which “polyreactivity (PSR sort gate)” value does the source give for “QVQLVESGGGLVQAAGSLRLSFAASGSIFGRYPMGWYRQAPGKERELVAAISTGDSTYYADSVKGRFTISRDNAKNTVYLQMISLKPEDTAVYYCNRRGRRGYDYWGQGTQVTVSS” here?
The value was “high polyreactivity”.

For “QVQLVESGGGLVQAAGSLRLSSAASGLIFPYYVMGWYRQAPGKERELVAAISVSGGNTYYADSVKGRFTITRDNAKYTVYLQLNSLKPVDTAVYYSAADHYRGSYDYWGQGSQVTVSS”, which “polyreactivity (PSR sort gate)” value is on record?
The value was “high polyreactivity”.

With “QVQLVESGGGLVQAAGSLRLSSAASGYTFYINAMGSYRQAPGKERELVATIRRRGGSTYYADSVKGRFTISRDNAKNTVYLQMNSLKPEDTAVYYCNADTLGGKYVYQYRRGFDYWGHGTQVTVSS” as the sequence, how does the “polyreactivity (PSR sort gate)” value read?
Its value is “high polyreactivity”.

For “QVQLVESGGGLVQAAGSLRLSSAPSGRIFYKNARGWYRQAPGKETELVAAISWRGTSTYYADSVKGRFTISRDNAKNTVYLQMNILKPEDTAVYYCNTLYYSQREIYYWGYDSWGKGTQVTVSS”, which “polyreactivity (PSR sort gate)” value is on record?
Its value is “high polyreactivity”.

Which “polyreactivity (PSR sort gate)” value does the source give for “QVQLVESGGGLVQAAPSLRLSCAASGSTINNNAMGWYRQAPRKERELVAAIDSGFSTNYADSVKGRFTISRDNAKNTVYLQMNSLKPEDTAVYYCYADPDYFDYWGQGTQVTVSS” here?
The value was “low polyreactivity”.

With “QVQLVESGGGLVQAGARLRLSCAASVSTFQSNAMGWSRQAPGKERELVAAIDQSGGSTYYADSLKGRFTISRDNAKNTVYLQMNSLKPEYTAVYYCAARTSGYWFSYGSWGQGTQVTVSS” as the sequence, how does the “polyreactivity (PSR sort gate)” value read?
The value was “high polyreactivity”.

With “QVQLVESGGGLVQAGASHRLSCAASGSTFRYNSMGSYRQAPGKERELVAAISRGGSTNYADSVNGRFTISRDNANNTVYLQMISLKPEATAVYYCAASGTRQEYDYWGQGTQVTVSS” as the sequence, how does the “polyreactivity (PSR sort gate)” value read?
The value was “high polyreactivity”.

Which “polyreactivity (PSR sort gate)” value does the source give for “QVQLVESGGGLVQAGASLRISCAASGNILPVYAMGWYRQAPGKEREFVAAITSRGGSTYYADSVKGRFTISRDNAKNTVYLQMNSLKPEDTAVYYCAAKYLRAYGYWGQGTQVTVSS” here?
The value was “high polyreactivity”.

With “QVQLVESGGGLVQAGASLRLSCAASGFTFGVYAMVWYRQAPGTVIELVAAISSSGGSTYYADSVKGRFTISRDNAKNTVYLQMNSLKPEDTAVYYCAKDTNSYYKYGYWGQGTQVTVSS” as the sequence, how does the “polyreactivity (PSR sort gate)” value read?
Its value is “high polyreactivity”.

With “QVQLVESGGGLVQAGASLRLSCAASGIILGSYAMGWYRQAPAKERELVAGITSGGGKYYADSVKGRFTISRDNAKNTVYLQMNSMKPEYTAVYYCAKLYFHYYRYGYWGQGTQVTVSS” as the sequence, how does the “polyreactivity (PSR sort gate)” value read?
Its value is “low polyreactivity”.

With “QVQLVESGGGLVQAGASLRLSCAASGITFTPYAMGWYRQAPGKERELVAAISWRGGSTYYADSVKGRFTISRDNAKNTVYLQMNSLKPEDTAVYYCAKDGRGYGRYSRYYTGDYWGQGTQVTVSS” as the sequence, how does the “polyreactivity (PSR sort gate)” value read?
Its value is “low polyreactivity”.

With “QVQLVESGGGLVQAGASLRLSCAASGLIFIHYAMGWYRQAPGKERELVATISRSGVRTYYADSVKGRFTISRDNAKNTVYLQMNSLKPEDTAVYYCAADYTTNFWGYRYNYWGQGTQVTVSS” as the sequence, how does the “polyreactivity (PSR sort gate)” value read?
The value was “low polyreactivity”.

Which “polyreactivity (PSR sort gate)” value does the source give for “QVQLVESGGGLVQAGASLRLSCAASGLNFKRNAMGWYRQAPGKERELVAAIRYSTDSTNYADSVKGRFTISRDNAKNTVFLQMNSLKPEDTAVYYCAKDKQDYEYWGQGTLVTVSS” here?
The value was “low polyreactivity”.

For “QVQLVESGGGLVQAGASLRLSCAASGLTFIFYAMGWYRQAPGKERELVAAISVSGGCTYYADSVKGRFTISRDNAKNTVYLQMNSLKPEDTAVYYCAADREHFATYGPHMDYWGQGTQVTVSS”, which “polyreactivity (PSR sort gate)” value is on record?
The value was “low polyreactivity”.

For “QVQLVESGGGLVQAGASLRLSCAASGRIFRNYAMGWYRQAPGKERELVAAISSSGGSTYYADSVKGRFTISRDIAKNTVYFQMNSLKPEDTAVYYCAAVARVRGRGDYWGQGSQVTVSS”, which “polyreactivity (PSR sort gate)” value is on record?
Its value is “high polyreactivity”.

Which “polyreactivity (PSR sort gate)” value does the source give for “QVQLVESGGGLVQAGASLRLSCAASGRIFYLNVMGWYIQAPGKERELVAAISSSDDSTYYADSVKGRFTISRHYAKNTVYLQMNSLKPEDTAVYYCAAGYHQVQNYGDAYYWSELYSWGLGTQVTVSS” here?
The value was “low polyreactivity”.

Which “polyreactivity (PSR sort gate)” value does the source give for “QVQLVESGGGLVQAGASLRLSCAASGSIFADYAMGWYRQAPGKERELVAAISYNGDSTYYADSVKGRFTISRDNAKNTVYLQMNSLKPEDTGVYYCATEDNYWYVTGDLYHTAFYYWGQGTQVTVSS” here?
The value was “low polyreactivity”.

Which “polyreactivity (PSR sort gate)” value does the source give for “QVQLVESGGGLVQAGASLRLSCAASGSIFAGYAMGWYRQAPWKERELVAAISWSGGGTYYADSVKGRFTISRDNEKNTVYLQMNSLKPEDTAVYYCNAYGYRHRGNGYWGQGTQVTVSS” here?
Its value is “high polyreactivity”.
